Legend:
ST2-his (human) [1] = biological target: ST2-his (human) (UniProt Q01638); assay: BLI (Octet RED384), ST2-his on anti-his sensors, IL-33 100 nM, steady state fit, average of n=2; not at equilibrium, for comparison only
ST2-his (human) [2] = biological target: ST2-his (human) (UniProt Q01638); assay: BLI (Octet RED384), ST2-his on anti-his sensors, IL-33 pre-mixed with ten-fold excess of 22A06-458 (the complex binds ST2), steady state fit, average of n=2
ST2-his (human) [3] = biological target: ST2-his (human) (UniProt Q01638); assay: BLI (Octet RED384), ST2-his on anti-his sensors, IL-33 pre-mixed with the anti IL-33 control antibody (the complex binds ST2), steady state fit, average of n=2

Chain of ST2-his (human) (Q01638 other isoform, or with tags, fused parts or gaps limits assumed): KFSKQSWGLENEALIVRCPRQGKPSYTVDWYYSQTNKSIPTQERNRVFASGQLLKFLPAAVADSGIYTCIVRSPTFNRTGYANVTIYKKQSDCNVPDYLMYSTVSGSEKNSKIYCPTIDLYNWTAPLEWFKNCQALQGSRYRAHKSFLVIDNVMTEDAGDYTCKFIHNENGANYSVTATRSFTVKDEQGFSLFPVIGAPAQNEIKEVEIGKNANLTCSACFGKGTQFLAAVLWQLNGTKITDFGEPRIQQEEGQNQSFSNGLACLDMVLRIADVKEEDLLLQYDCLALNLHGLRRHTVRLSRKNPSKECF

Kd (ST2-his (human) [1]): 7.2 nM
Kd (ST2-his (human) [2]): 11.5 nM
Kd (ST2-his (human) [3]): 2.4 nM
B1: human IL-33 (ligand, not shown: small tags and cut ends)
chain: ITGISPITEYLASLSTYNDQSITFALEDESYEIYVEDLKKDEKKDKVLLSYYESQHPSNESGDGVDGKMLMVTLSPTKDFWLHANNKEHSVELHKCEKPLPDQAFFVLHNMHSNCVSFECKTDPGVFIGVKDNHLALIKVDSSENLCTENILFKLSET
modifications: Biotinylated in Example 2; the site is not stated.

From patent US20260167710A1
